Target: HPIV3 fusion (F) protein stabilized in the prefusion conformation (HPIV3 preF) (human parainfluenza virus type 3) (UniProt P06828)
Assay: cryo-EM structure

How did the stoichiometry N turn out when “HPIV3 fusion (F) protein stabilized in the prefusion conformation (HPIV3 preF) (from UniProt P06828 19-481) (natural protein)” was run?
The stoichiometry N was 3.
